Assay results reported in paper PMC3658276, “Plant stem cell maintenance involves direct transcriptional repression of differentiation program”.

T1: WUSCHEL (His-WUS) (UniProt Q9SB92 1-292)
T1 sequence: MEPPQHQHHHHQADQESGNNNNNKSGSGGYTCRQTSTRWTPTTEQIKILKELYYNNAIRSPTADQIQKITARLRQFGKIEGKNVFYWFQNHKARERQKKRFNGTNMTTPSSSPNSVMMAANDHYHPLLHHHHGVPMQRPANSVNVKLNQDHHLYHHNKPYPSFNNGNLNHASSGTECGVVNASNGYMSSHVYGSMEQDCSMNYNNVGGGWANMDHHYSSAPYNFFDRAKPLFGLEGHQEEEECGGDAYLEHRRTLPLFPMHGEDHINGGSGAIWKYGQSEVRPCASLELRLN

B1: KAN1 1050 oligo (dsDNA)
DNA 1: TCTTACACTAATACTATATTTACACATG
DNA 2: CATGTGTAAATATAGTATTAGTGTAAGA
B2: KAN1 -1100 oligo (dsDNA)
DNA 1: TACTGATATTTAATGTATATTTATCTCT
DNA 2: AGAGATAAATATACATTAAATATCAGTA

Target: T1, WUSCHEL (His-WUS)
Experiment: EMSA; supershift with anti-WUS antibody; EMSA conditions not given; as in Yadav et al 2011
Conditions: protein: recombinant; tags: His; chain copies: 2; (radiolabeled)

| Binder | binding result |
| --- | --- |
| B1 | binds |
| B2 | binds |
